Experimental data: US20210079067A1 (US Dept. of Health and Human Services, published 2021)

T1: Zaire ebolavirus full-length GP (Zaire ebolavirus, UniProt Q05320 33-650)
T1 sequence: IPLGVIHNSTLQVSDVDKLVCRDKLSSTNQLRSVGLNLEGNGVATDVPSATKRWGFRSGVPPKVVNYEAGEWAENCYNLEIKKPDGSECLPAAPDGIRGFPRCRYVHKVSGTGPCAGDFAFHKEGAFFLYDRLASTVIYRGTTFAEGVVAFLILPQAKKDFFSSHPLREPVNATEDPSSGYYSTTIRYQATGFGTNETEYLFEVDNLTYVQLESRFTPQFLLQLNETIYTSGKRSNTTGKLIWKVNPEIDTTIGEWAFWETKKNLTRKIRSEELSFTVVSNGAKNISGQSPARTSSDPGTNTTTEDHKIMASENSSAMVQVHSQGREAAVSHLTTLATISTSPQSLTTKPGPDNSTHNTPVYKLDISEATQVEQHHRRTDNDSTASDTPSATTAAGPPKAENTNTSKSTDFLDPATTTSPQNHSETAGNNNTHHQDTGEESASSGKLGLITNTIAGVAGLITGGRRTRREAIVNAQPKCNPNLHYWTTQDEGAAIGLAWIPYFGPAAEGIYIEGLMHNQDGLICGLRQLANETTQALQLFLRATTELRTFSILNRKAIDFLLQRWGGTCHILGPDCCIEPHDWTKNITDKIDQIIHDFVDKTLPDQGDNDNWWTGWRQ

T2: Zaire ebolavirus secreted GP (sGP) (Zaire ebolavirus, UniProt P60170 33-324)
T2 sequence: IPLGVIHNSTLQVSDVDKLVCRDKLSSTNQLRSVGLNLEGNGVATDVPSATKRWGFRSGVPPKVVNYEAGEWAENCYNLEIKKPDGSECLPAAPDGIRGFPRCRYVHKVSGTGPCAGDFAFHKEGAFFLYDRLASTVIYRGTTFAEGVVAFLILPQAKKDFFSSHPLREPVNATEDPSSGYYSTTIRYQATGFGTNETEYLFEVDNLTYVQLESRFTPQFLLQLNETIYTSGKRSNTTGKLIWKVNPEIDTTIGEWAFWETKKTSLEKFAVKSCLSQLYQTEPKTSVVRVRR


Tests used:
[1] = target: T1, Zaire ebolavirus full-length GP; assay: ELISA on plates coated with purified full-length Zaire ebolavirus GP, A450
[2] = target: T2, Zaire ebolavirus secreted GP (sGP); assay: ELISA on plates coated with purified Zaire ebolavirus sGP, A450
[3] = target: T2, Zaire ebolavirus secreted GP (sGP); assay: biolayer interferometry, pH 7.4

| Binder | EC50 (read off the curve) [1] | binding result [2] | binding result [3] |
| --- | --- | --- | --- |
| mAb100 (antibody, V domains shown) VH: QVQLQESGPGLVKPSDTLSLTCTVSGGSLSSFYWSWIRQPPGKGLEWIGYIYYSGSPNYSPSLESRVTMSVDTTRNQISLKLDSVTAADTAVYYCVRASRSYYWGSYRPTAFDSWGQGTLVTVSS VL: SYELTQPLSVSVSPGQTAIFTCSGDNLGDKYVCWFQQRPGQSPMLLIYQDNKRPSGIPERFSGSNSGNTATLTISGTQSTDEADYYCQTWDSTVVFGGGTKLTVL | ~0.02 µg/mL | – | – |
| S1-4-A09 antibody (IgG1 expressed version) (antibody, V domains shown) VH: QVQLQESGPGLVKPSETLSLTCVVSGGILSSFYWNWIRQPPGKGLEWIGNIYYSGSPNYNASFQSRVAISVDTSKNQISLNLKSVTAADTAMYYCVRASRAYLWGSYRPTALDLWGQGSLVTVSS VL: SYELTQPPSVSVSPGQTATITCSGDKLGDKYTSWFQQRPGQSPLLVIYQDNKRPSGLPARFSGSNSGNTATLTISGTQAMDEADYLCQVWDSGAVFGGGTKLTVLG | ~0.03 µg/mL | no binding | – |
| S1-4-A09 Fab (Fab, V domains shown) VH: QVQLQESGPGLVKPSETLSLTCVVSGGILSSFYWNWIRQPPGKGLEWIGNIYYSGSPNYNASFQSRVAISVDTSKNQISLNLKSVTAADTAMYYCVRASRAYLWGSYRPTALDLWGQGSLVTVSS VL: SYELTQPPSVSVSPGQTATITCSGDKLGDKYTSWFQQRPGQSPLLVIYQDNKRPSGLPARFSGSNSGNTATLTISGTQAMDEADYLCQVWDSGAVFGGGTKLTVL | – | – | no binding |
